# From patent US5985278A (Merck Patent Gesellschaft mit Beschrankter Haftung, priority 1994, dated 1999)
# Values joined by “and” are separate entries in the source; they are usually repeats but may differ in a detail not shown here. Identical values can stand only once.
# B1: 17E6: murine IgG1 monoclonal antibody against human αv-integrin chain, from hybridoma 272-17E6 (DSM ACC2160) (antibody, V domains shown)
# VH: QVQLQQSGAELAEPGASVKMSCKASGYTFSSFWMHWVKQRPGQGLEWIGYINPRSGYTECNEIFRDKATMTADTSSSTAYMQLSGLTSEDSAVYYCASFLGRGAMDYWGQGTSVTVSS
# VL: DIQMTQTTSSLSASLGDRVIISCRASQDISNYLSWYQQKPDGTVKLLIFYTSKLHSGVPSRFSGSGSGTDYSLTISNLDQEDIATYFCQQGNTFPYTFGGGTKVEMR
# Legend:
# [1] = in vivo; cited from earlier work
# [2] = target: T1, αvβ3 (Homo sapiens, UniProt P05106+P06756); assay: Direct competition assay, vitronectin binding to isolated αvβ3; conditions: isolated receptor
# T1 construct: αVβ3 was purified from human placenta; from tissue; host or cells: human term placenta
# T1 sequence (P06756 31-889 limits assumed): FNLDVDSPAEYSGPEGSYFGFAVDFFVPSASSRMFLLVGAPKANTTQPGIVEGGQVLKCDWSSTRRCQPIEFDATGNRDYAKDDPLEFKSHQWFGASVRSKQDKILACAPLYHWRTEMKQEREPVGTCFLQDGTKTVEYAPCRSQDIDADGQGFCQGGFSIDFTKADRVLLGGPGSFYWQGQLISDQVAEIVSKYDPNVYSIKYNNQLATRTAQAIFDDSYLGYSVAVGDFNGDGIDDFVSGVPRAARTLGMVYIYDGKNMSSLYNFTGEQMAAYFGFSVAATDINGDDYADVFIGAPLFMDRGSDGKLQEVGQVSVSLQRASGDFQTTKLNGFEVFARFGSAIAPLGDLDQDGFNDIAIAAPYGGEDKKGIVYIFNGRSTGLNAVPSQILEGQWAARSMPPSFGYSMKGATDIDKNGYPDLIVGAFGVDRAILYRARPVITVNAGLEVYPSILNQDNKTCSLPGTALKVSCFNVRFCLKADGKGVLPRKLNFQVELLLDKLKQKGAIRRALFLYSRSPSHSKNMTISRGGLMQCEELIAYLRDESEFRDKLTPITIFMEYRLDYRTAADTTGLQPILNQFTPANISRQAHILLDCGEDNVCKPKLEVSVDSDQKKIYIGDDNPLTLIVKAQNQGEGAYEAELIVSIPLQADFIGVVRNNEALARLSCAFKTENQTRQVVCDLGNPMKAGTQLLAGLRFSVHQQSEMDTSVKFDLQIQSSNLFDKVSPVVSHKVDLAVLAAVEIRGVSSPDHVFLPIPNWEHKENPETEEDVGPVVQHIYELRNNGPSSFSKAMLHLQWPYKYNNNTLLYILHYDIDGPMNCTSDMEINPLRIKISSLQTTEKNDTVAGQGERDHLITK
# T1 sequence (P06756 891-1048 limits assumed): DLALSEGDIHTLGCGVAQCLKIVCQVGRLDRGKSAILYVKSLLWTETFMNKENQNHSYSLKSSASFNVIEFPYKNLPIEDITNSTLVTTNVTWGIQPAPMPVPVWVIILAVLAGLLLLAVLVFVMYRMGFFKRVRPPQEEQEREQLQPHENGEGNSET
# T1 sequence (P05106 27-788): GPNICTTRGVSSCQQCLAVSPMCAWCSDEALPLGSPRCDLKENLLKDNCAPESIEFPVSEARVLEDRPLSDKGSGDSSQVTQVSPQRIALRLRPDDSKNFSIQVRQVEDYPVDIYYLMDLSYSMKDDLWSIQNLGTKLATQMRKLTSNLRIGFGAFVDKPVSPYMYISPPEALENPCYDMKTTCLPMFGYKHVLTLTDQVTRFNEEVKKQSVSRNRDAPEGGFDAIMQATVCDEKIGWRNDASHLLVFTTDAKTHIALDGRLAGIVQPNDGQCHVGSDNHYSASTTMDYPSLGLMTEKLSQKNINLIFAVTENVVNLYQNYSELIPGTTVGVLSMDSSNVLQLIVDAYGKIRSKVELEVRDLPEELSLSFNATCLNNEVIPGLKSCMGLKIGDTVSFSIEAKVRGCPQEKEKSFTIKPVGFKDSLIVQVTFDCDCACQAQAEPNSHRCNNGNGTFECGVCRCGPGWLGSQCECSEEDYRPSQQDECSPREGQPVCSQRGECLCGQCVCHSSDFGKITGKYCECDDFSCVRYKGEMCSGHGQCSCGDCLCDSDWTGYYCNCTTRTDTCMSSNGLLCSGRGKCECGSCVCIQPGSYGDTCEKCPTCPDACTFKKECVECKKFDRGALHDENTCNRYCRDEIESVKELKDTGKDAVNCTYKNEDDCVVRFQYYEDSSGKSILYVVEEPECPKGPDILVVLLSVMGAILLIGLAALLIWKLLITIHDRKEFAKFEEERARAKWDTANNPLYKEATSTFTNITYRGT
# Protocol: The plate was washed once with buffer B (3% BSA (w/v), 100 mM NaCl, 1 mM MgCl2, 1 mM CaCl2, 10 mM MnCl2, 50 mM Tris-HCl; pH 7.4) and incubated 2 h at 20° C. in the same buffer.
# After rinsing with buffer C (buffer B with BSA at 0.1% (w/v)) was added containing biotinylated ligand (1 μg ml^-1 end concentration) and serially diluted test peptides or proteins. After incubation (3 h, 30° C.), unbound ligand was washed from the plate by 3 rinses with buffer C, and incubation continued for 1 h with anti-biotin-alkaline phosphatase-conjugated antibody (1:10000 in buffer C) (Sigma) followed by PBS wash and detection of bound antibody with NBT-BCIP (Biorad) as substrate. ECM molecules and antibodies were routinely biotinylated and used in such an assay configuration.
# Assays were routinely performed in triplicate or quadruplicate, and repeated at least 3 times to derive an IC50 from an unweighted sigmoid curve fit. Results were normalized against external control peptides to allow intra-assay comparison.
# [3] = tested on: M21-L, M21-L4 and M21-L-IIb cells; assay: DNA synthesis ([3H]-thymidine incorporation) in M21 variant lines; assay type: cell-based, human; conditions: M21-L and M21-LGpIIb, FIG. 9 B, D
# Protocol: (§1) Adherent melanoma cells were detached (0.05% Trypsin/0.02% EDTA). Washed cells were seeded into 96-well flat-bottom microtest plates (1×10^4 cells per well) and cultured without (control) or in the presence of serially diluted antibodies in RPMI medium with 10% FCS. After 48 h, cells were pulse labelled for 18 h (18.5 kBeq [^3 H]-thymidine per well) and harvested. Incorporated radioactivity was measured and expressed as counts per minute.
# [4] = tested on: M21 cells; assay: Complement dependent cytotoxicity (CDC); assay type: cell-based, human; conditions: not shown
# Protocol: M21 cells (10,000) were plated in a 96-well plate with 50 μl of complete medium and 20 μl of antibodies. Rabbit serum (50 μl, 1:5; Behring) was added as source of complement and plate was incubated (37° C.; 60 min). Lysis was quantified by MTT technique (Mosmann, 1983). Percent of lysis was calculated using wells with 1% Tween-20 as 100% lysed controls, and without antibody as 0% lysed control.
# [5] = tested on: M21-L; assay: Subcutaneous M21-L tumor development in nude mice; assay type: in vivo, BALB/c nu/nu mice; conditions: FIG. 7b
# Protocol: (§2) Tumor cells in exponential growth were harvested with EDTA, washed and examined for viability by trypan blue dye exclusion. Viability was between 96-99%. For primary tumor growth, cells (0.5×10^6 cells in 0.2 ml PBS++) were injected subcutaneously into the flanks of nude mice. Tumor growth was followed by measuring tumor diameters with callipers and the tumor volume was calculated using an approximated formula for a prolate ellipsoid: […]
# (§3) where a is the longest axis of the tumor and b the shortest. A minimum of eight animals was used per group.
# (§4) For experimental lung metastasis, cells were harvested (0.05% Trypsin/0.02%EDTA) and were injected into the tail vein of nude mice (0.5×10^6 cells in 0.2 ml PBS++). 7 weeks later the animals were sacrificed, the lungs removed and fixed in a Bouins' solution, and the tumor foci on the surface of the lungs counted. For antibody treatment, harvested and washed cells were incubated with purified endotoxin free MAbs (70 μg per 10^6 cells 0.5 ml PBS++) for 30 min at 20° C. in an end-over-end rotator before dilution to 0.5×10^6 cells in 0.2 ml PBS and injection. Cells viability was assessed by Trypan blue dye exclusion before and after completing the injection schedule, where no significant difference was found (viability pre-injection=viability post injection ±5%). The tumor inhibition data was assessed using the 2-tailed Student T-test.
# [6] = tested on: B16F10 cells; assay: Flow cytometry (FACS) on B16F10; assay type: binding; conditions: murine cell
# Protocol: (§5) Cells were harvested with EDTA, washed, and 10^6 cells in PBS-1% BSA were incubated with MAb (10 μg ml^-1; 20 min, 4° C.). After washing and labelling (20 min, 4° C.) with goat anti-mouse Ig-FITC (Becton Dickinson), cells were incubated with propidium iodide before flow cytometry analysis (EPICS Profile II, Coulter). Living cells were selected by appropriate gates on the side and forward scatter. Fluorescein was excited at 488 nm with an argon ion laser and the emitted fluorescence (525 nm) was recorded. In some experiments, M21-L cells were stained following a brief fixation and permeabilization step (70% ethanol; 5 min×-20° C.).
# [7] = tested on: αvβ3 (WM164 and M21 cells); assay: Cell attachment to vitronectin mediated by αvβ3 (WM164 and M21 cells); assay type: cell-based, human; conditions: FIG. 11
# Protocol: (§6) Cell Attachment Assays were as previously described (Goodman et al., 1991), using hexosaminidase activity (Landegren, 1984) to detect attached cells. Dilutions and cell suspensions were in attachment buffer (RPMI, 1% BSA, 25 mM HEPES; pH 7.4). Matrix proteins were coated onto 96- or 48-well plates, the wells were blocked with BSA and serially diluted MAbs were added to the wells followed by cells (2.5×10^4 -5×10^4). After 1 h at 37° C., non-adherent cells were washed away and attached cells counted against a standard curve run in parallel. Inhibition of attachment was calculated by using wells with no MAbs as reference. Typically, over 70% of added cells had attached to vitronectin at 1 h. Cell attachment to wells coated with BSA alone was routinely less than 5% of specifically attached cells.
# [8] = tested on: WM793 cells; assay: WM793 cell attachment to vitronectin; assay type: cell-based, human; conditions: FIG. 4e,f
# Protocol: as §6
# [9] = tested on: M21-L12 cells; assay: Flow cytometry (FACS) on M21-L12; assay type: binding, human; conditions: relative to secondary antibody only
# Protocol: as §5
# [10] = tested on: UCLA-P3 cells; assay: Flow cytometry (FACS) on UCLA-P3; assay type: binding, human; conditions: relative to secondary antibody only
# Protocol: as §5
# [11] = tested on: M21 cells; assay: Antibody-directed cellular cytotoxicity (ADCC) with BALB/c microglia; assay type: cell-based, human; conditions: up to 10^-7 M, murine microglia effector cells
# Protocol: Preparation of BALB/C microglial cells and conditions for ADCC and antibody-effector cell mediated cytostasis (AECM) were essentially as described (Sutter et al., 1991). M21 cells were pulsed for 18 h with ^3 H-thymidine (18 kBq per 4×10^3 cells per well) and incubated on 96-well plates with BALB/C microglia (5×10^4 cells per well) in 200 μl DMEM/FCS (10%) in the presence of antibodies. After 48 hrs, [^3 H] label retained in the nuclear compartment of target cells was measured. MAb dependent cytotoxicity was calculated using the formula: [(experimental ccpm-spontaneous ccpm)/(maximum ccpm-spontaneous ccpm)]×100.
# [12] = tested on: αvβ1 (V+B2 cells); assay: Cell attachment to vitronectin mediated by αvβ1 (V+B2 cells); assay type: cell-based; conditions: FIG. 11
# Protocol: as §6
# [13] = tested on: M21 tumors; assay: Subcutaneous M21 tumor development in nude mice; assay type: in vivo, BALB/c nu/nu mice
# Protocol: as §2, §3, §4
# [14] = tested on: M21 cells; assay: M21 cell attachment to vitronectin; assay type: cell-based, human; conditions: maximal block
# Protocol: as §6
# [15] = tested on: purified αvβ3; assay: ELISA on purified αvβ3; assay type: binding, human
# [16] = tested on: WM793 cells; assay: Flow cytometry (FACS) on WM793; assay type: binding, human; conditions: relative to secondary antibody only
# Protocol: as §5
# [17] = tested on: M21 cells; assay: Flow cytometry (FACS) on M21; assay type: binding, human
# Protocol: as §5
# [18] = tested on: human melanoma and carcinoma cell lines; assay: αV-mediated cell attachment to vitronectin, cell line panel; assay type: cell-based
# Protocol: as §6
# [19] = tested on: M21 cells; assay: M21 cell proliferation assay; assay type: cell-based, human; parameters: dose or concentration left out as unconfirmed; conditions: M21, antibody (FIG. 8a)
# Protocol: […] Growth and viability were estimated by Trypan blue dye exclusion. Activation was measured by the MTT assay as described above, and cell numbers were counted daily using a cell counter (Coulter electronics).
# [20] = tested on: M21 tumor foci; assay: Lung colonization experimental metastasis assay; assay type: in vivo, BALB/C nu/nu mice
# Protocol: as §4
# [21] = tested on: αvβ5 (UCLA-P3 cells); assay: Cell attachment to vitronectin mediated by αvβ5 (UCLA-P3 cells); assay type: cell-based, human
# Protocol: as §6
# [22] = tested on: M21-L4 cells; assay: Flow cytometry (FACS) on M21-L4; assay type: binding, human; conditions: relative to secondary antibody only
# Protocol: as §5
# [23] = tested on: M21 cells; assay: M21 cell attachment to laminin and collagen; assay type: cell-based, human; conditions: M21, FIG. 5
# Protocol: as §6
# [24] = tested on: M21-L cells; assay: Flow cytometry (FACS) on M21-L; assay type: binding, human; conditions: relative to secondary antibody only
# Protocol: as §5
# [25] = tested on: B16F10 cells; assay: B16F10 cell attachment to vitronectin; assay type: cell-based; conditions: murine cell
# Protocol: as §6
# [26] = tested on: M21-L-IIb cells; assay: Flow cytometry (FACS) on M21-L-IIb; assay type: binding, human; conditions: relative to secondary antibody only
# Protocol: as §5
# [27] = tested on: M21 cells; assay: DNA synthesis ([3H]-thymidine incorporation) in M21; assay type: cell-based, human; parameters: dose or concentration left out as unconfirmed
# Protocol: as §1
molecule,measurement,setting,value
RGDS: RGD-peptide (SEQ ID NO:6),serum half-life,[1],8 min
GRGDSPK [Gly-Arg-Gly-Asp-Ser-Pro-Lys],IC50,[2],~2000 nM
CC(=O)O[C@H]1C(=O)[C@@]2(C)[C@H]([C@H](OC(=O)c3ccccc3)[C@]3(O)C[C@H](OC(=O)[C@H](O)[C@@H](NC(=O)c4ccccc4)c4ccccc4)C(C)=C1C3(C)C)[C@]1(OC(C)=O)CO[C@@H]1C[C@@H]2O [Taxol],"DNA synthesis, positive control",[3],completely suppresses
B1,complement mediated lysis on M21 cells,[4],did not affect
same,subcutaneous M21-L growth / take,[5],unaffected
same,FACS reaction with B16F10,[6],did not react
same,"IC50, αvβ3 attachment (WM164 and M21 cells)",[7],~ 0.5 μg ml^-1
same,"IC50, WM793 attachment to vitronectin",[8],~ 60 ng ml^-1
same,"Reactivity in flow cytometry, M21-L12",[9],- (1-2 (-))
same,"Reactivity in flow cytometry, UCLA-P3 (αvβ5)",[10],+++ (>9 (+++))
same,ADCC against M21,[11],did not mediate ADCC
same,"IC50, cell attachment mediated by αvβ1 (V+B2 cells)",[12],~ 0.1 μg ml^-1
same,tumors and metastases at sacrifice,"[13]; 6 months, lungs, liver, kidney, spleen, colon, stomach, body cavities",neither subcutaneous tumors nor metastases
same,tumors taken in the presence of antibody,[13]; M21 cells subcutaneously co-injected with antibody,0/32
same,experiments in which subcutaneous development of M21 tumors was blocked,"[13]; mouse, in vivo",4/4
same,time animals remain tumor free,"[13]; mouse, in vivo",> 6 months
same,block of M21 initial attachment to vitronectin,[14],~ 85% and ~ 90%
same,50% saturation in ELISA on isolated αvβ3,[15]; FIG. 10,~ 1 ng ml^-1
same,50% binding to αvβ3 in ELISA,[15]; screening ELISA,10 to 20 ng/mL
same,EC50,"[15]; screening ELISA, read-out: 50% binding to αvβ3 in ELISA",0.05 to 0.1 nM
same,"Reactivity in flow cytometry, WM793 (αvβ3; αvβ5)",[16],+++ (>9 (+++))
same,"Reactivity in flow cytometry, M21 (αvβ3; αvβ5)","[17]; relative to secondary antibody only, MAb 10 μg ml^-1",++ (4-9 (++))
same,FACS reaction with M21,[17]; αv-expressing line,strongly
same,IC50 in cellular assay,[18],~ 100 ng ml^-1
same,IC50,"[18]; antibody MW 150,000, read-out: IC50, αV-mediated cell attachment",0.3 to 1 nM
same,initial attachment to vitronectin of cells reacting in FACS with 17E6,"[18]; hybridoma supernatants, FIG. 3",strongly blocked
same,kinetic of cell growth and saturation density,[19],not greatly influenced
same,Tumor Take,[20]; 7 weeks after tail vein injection,78
same,"Number of Tumor Foci, Mean ± SEM","[20]; lung surface, 7 weeks",8 ± 7.7
same,"Number of Tumor Foci, Median","[20]; lung surface, 7 weeks",5
same,reduction of numbers of tumor colonies,"[20]; pre-incubation of M21 with antibody, tail-vein injection",90%
same,% Control,[20]; tumor foci relative to M21 control,9%
same,"IC50, attachment to vitronectin on αvβ5 (UCLAP3)","[21]; FIG. 4c,d",~ 30 ng ml^-1
same,"IC50, cell attachment mediated by αvβ5 (UCLA-P3 cells)","[21]; vitronectin, FIG. 11",~ 0.1 μg ml^-1
same,"Reactivity in flow cytometry, M21-L4",[22],++ (4-9 (++))
same,"cell attachment to other matrix substrates (laminin, collagen)",[23],lack of effect
same,"Reactivity in flow cytometry, M21-L",[24],- (1-2 (-))
same,B16F10 attachment on vitronectin,[25],not affected
same,"Reactivity in flow cytometry, M21-L-llb (αllbβ3)",[26],- (1-2 (-))
same,thymidine incorporation in M21 cells,[27],no effect
